# In patent publication US20070258992A1:
# Target: mouse synaptosomes
substance,measurement,value
active botulinum neurotoxin A (from UniProt P0DPI0 2-1296),maximum inhibition,78%
